Patent US5854042A, “Sugar-chain synthetase and process for producing the same” (The Institute of Physical and Chemical Research, priority 1993, dated 1998)

What was measured:
[1] = biological target: Asialo-ovomucoid
[2] = biological target: alpha 1 acid glycoprotein
[3] = biological target: Fetuin (Bos taurus (Bovine)) (UniProt P12763)
[4] = biological target: Asialo-alpha 1 acid glycoprotein
[5] = biological target: Bovine submaxillary asialo-mucin (bovine)
[6] = biological target: Bovine submaxillary mucin (bovine)
[7] = biological target: Asialo-fetuin (Bos taurus (Bovine)) (UniProt P12763)
[8] = biological target: Ovomucoid
[9] = biological target: Asialo-orosomucoid
[10] = biological target: alpha 1 acid glycoprotein; remark: listed apart in the source
[11] = biological target: Fetuin (Bos taurus (Bovine)) (UniProt P12763); remark: listed apart in the source
[12] = biological target: Asialo-alpha 1 acid glycoprotein; remark: listed apart in the source
[13] = biological target: Bovine submaxillary asialo-mucin (bovine); remark: listed apart in the source
[14] = biological target: Bovine submaxillary mucin (bovine); remark: listed apart in the source
[15] = biological target: Asialo-fetuin (Bos taurus (Bovine)) (UniProt P12763); remark: listed apart in the source
[16] = substrate: CC(=O)N[C@H]1C(O)O[C@H](CO)[C@@H](O[C@@H]2O[C@H](CO)[C@H](O)[C@H](O)[C@H]2O)[C@@H]1O; experiment: purified protein, by the assay type; conditions: pH 6.0; 37.0 °C
[17] = substrate: CC(=O)N[C@H]1[C@H]([C@H](O)[C@H](O)CO)O[C@](OP(=O)(O)OC[C@H]2O[C@@H](n3ccc(N)nc3=O)[C@H](O)[C@@H]2O)(C(=O)O)C[C@@H]1O; experiment: purified protein, by the assay type; conditions: other: measured with N-acetyllactosamine as the acceptor; pH 6.0; 37.0 °C
[18] = substrate: CC(=O)N[C@H]1[C@H]([C@H](O)[C@H](O)CO)O[C@](OP(=O)(O)OC[C@H]2O[C@@H](n3ccc(N)nc3=O)[C@H](O)[C@@H]2O)(C(=O)O)C[C@@H]1O; experiment: Sialyltransferase assay, kinetic parameters (Km) of the renatured enzyme; type: biochemical, mouse; conditions: other: renatured enzyme after removal of urea by dialysis; measured with N-acetyllactosamine as the acceptor
Protocol: Reaction mixture was added with 1 mg/ml bovine serum albumin, 1 μl of the enzyme solution, and 50 mM sodium cacodylate (pH 6.0) to a total volume of 10 μl, and incubation was continued at 37° C. for 1 h. Then, the samples were applied to silica gel60 HPTLC plate (Merck Germany) and developed with ethanol/pyridine/n-butanol/acetic acid/water (100:10:10:3:30) as a developing solvent. The radioactivity transferred on each plate was determined with a radio image analyzer BAS2000 (Fuji Photo Film, Japan, Lee, Y.-C. et al., Eur. J. Biochem., 216, 377-385, 1993).

[19] = substrate: CC(=O)N[C@H]1C(O)O[C@H](CO)[C@@H](O[C@@H]2O[C@H](CO)[C@H](O)[C@H](O)[C@H]2O)[C@@H]1O; experiment: cells, lysate or membranes named; conditions: other: renatured enzyme after removal of urea by dialysis

GalNAc alpha 2,6-sialyltransferase P-B3 (enzyme)
Acceptor substrate specificity, pmol/h/µl enzyme fraction ([14C]NeuAc transfer) [1]: 1 pmol/h/µL | Acceptor substrate specificity, pmol/h/µl enzyme fraction ([14C]NeuAc transfer) [2]: < 0.5 pmol/h | Acceptor substrate specificity, pmol/h/µl enzyme fraction ([14C]NeuAc transfer) [3]: 28 pmol/h/µL | Acceptor substrate specificity, pmol/h/µl enzyme fraction ([14C]NeuAc transfer) [4]: 1.2 pmol/h/µL | Acceptor substrate specificity, pmol/h/µl enzyme fraction ([14C]NeuAc transfer) [5]: 5.2 pmol/h/µL | Acceptor substrate specificity, pmol/h/µl enzyme fraction ([14C]NeuAc transfer) [6]: 0.5 pmol/h/µL | Acceptor substrate specificity, pmol/h/µl enzyme fraction ([14C]NeuAc transfer) [7]: 35 pmol/h/µL | Acceptor substrate specificity, pmol/h/µl enzyme fraction ([14C]NeuAc transfer) [8]: < 0.5 pmol/h

Rat liver Gal beta 1,4GlcNAc alpha 2,6-sialyltransferase (from UniProt P13721) (enzyme)
Km [9]: 200 µM | Relative Activity to Gal β 1,4GlcNAc (relative to Gal β 1,4GlcNAc) [10]: 0.1 | Relative Activity to Gal β 1,4GlcNAc (% of the control) [11]: < 2 | Relative Activity to Gal β 1,4GlcNAc (relative to Gal β 1,4GlcNAc) [12]: 1 | Relative Activity to Gal β 1,4GlcNAc (% of the control) [13]: < 2 | Relative Activity to Gal β 1,4GlcNAc (% of the control) [14]: < 2 | Relative Activity to Gal β 1,4GlcNAc (relative to Gal β 1,4GlcNAc) [15]: 0.97

Renatured mouse Gal beta 1,4GlcNAc alpha 2,6-sialyltransferase (from UniProt Q64685) (enzyme)
Km [9]: 400 µM | Relative Activity to Gal β 1,4GlcNAc (relative to Gal β 1,4GlcNAc) [10]: 0.1 | Relative Activity to Gal β 1,4GlcNAc (relative to Gal β 1,4GlcNAc) [11]: 0.25 | Relative Activity to Gal β 1,4GlcNAc (relative to Gal β 1,4GlcNAc) [12]: 2.1 | Relative Activity to Gal β 1,4GlcNAc (% of the control) [13]: < 2 | Relative Activity to Gal β 1,4GlcNAc (% of the control) [14]: < 2 | Relative Activity to Gal β 1,4GlcNAc (relative to Gal β 1,4GlcNAc) [15]: 1.5

B1: Rat liver Gal β 1,4GlcNAc α 2,6-sialyltransferase (obtained from Sigma) (Rattus norvegicus) (protein)
chain: MIHTNLKKKFSLFILVFLLFAVICVWKKGSDYEALTLQAKEFQMPKSQEKVAMGSASQVVFSNSKQDPKEDIPILSYHRVTAKVKPQPSFQVWDKDSTYSKLNPRLLKIWRNYLNMNKYKVSYKGPGPGVKFSVEALRCHLRDHVNVSMIEATDFPFNTTEWEGYLPKENFRTKVGPWQRCAVVSSAGSLKNSQLGREIDNHDAVLRFNGAPTDNFQQDVGSKTTIRLMNSQLVTTEKRFLKDSLYTEGILIVWDPSVYHADIPKWYQKPDYNFFETYKSYRRLNPSQPFYILKPQMPWELWDIIQEISADLIQPNPPSSGMLGIIIMMTLCDQVDIYEFLPSKRKTDVCYYHQKFFDSACTMGAYHPLLFEKNMVKHLNEGTDEDIYLFGKATLSGFRNIRC
Km [16]: 5000 µM | Km [17]: 40 µM

B2: mouse Gal β 1,4GlcNAc α 2,6-sialyltransferase, recombinant soluble form lacking the cytosolic and transmembrane domains (29th amino acid residue to C-terminal … (protein)
chain: GSDYEALTLQAKVFQMPKSQEKVAVGPAPQAVFSNSKQDPKEGVQILSYPRVTAKVKPQPSLQVWDKDSTYSKLNPRLLKIWRNYLNMNKYKVSYKGPGPGVKFSVEALRCHLRDHVNVSMIEATDFPFNTTEWEGYLPKENFRTKAGPWHKCAVVSSAGSLKNSQLGREIDNHDAVLRFNGAPTDNFQQDVGTKTTIRLVNSQLVTTEKRFLKDSLYTEGILILWDPSVYHADIPQWYQKPDYNFFETYKSYRRLHPSQPFYILKPQMPWELWDIIQEISPDLIQPNPPSSGMLGIIIMMTLCDQVDIYEFLPSKRKTDVCYYHQKFFDSACTMGAYHPLLFEKNMVKHLNEGTDEDIYLFGKATLSGFRNNRC
Km [18]: 80 µM | Km [19]: 6500 µM
